In this experiment the target is clotted plasma proteins. Kind of experiment: binding to plasma clots; method not described, data not shown.

Where no end group is shown, it is not given here. [ ]: non-standard residue; d: D form. NMeE = CN[C@@H](CCC(=O)O)C(=O)O

B1: CREKA peptide (cys-arg-glu-lys-ala) (peptide)
peptide: CREKA
The Kd is the concentration at which binding is half-saturated. Molecule B1 gave a Kd of 6 µM.

B2: CR(NMe)EKA (peptide)
peptide: CR[NMeE]KA
Regarding B2, the Kd turned out to be 2.5 µM.

Source of the values: patent publication US20110165064A1.
